Measured values as given in patent US20250171562A1 (ALK ABELL, published 2025).

B1: CIgG4E1A1(G4S)1 (Fc fusion)
chain 1: GPPCPPCPAPEFLGGPSVFLFPPKPKDTLMISRTPEVTCVVVDVSQEDPEVQFNWYVDGVEVHNAKTKPREEQFNSTYRVVSVLTVLHQDWLNGKEYKCKVSNKGLPSSIEKTISKAKGQPREPQVYTLPPCQEEMTKNQVSLWCLVKGFYPSDIAVEWESNGQPENNYKTTPPVLDSDGSFFLYSRLTVDKSRWQEGNVFSCSVMHEALHNHYTQKSLSLSLGKGGGGSDVQLQESGGGLVQAGGSLRLSCLASGRTFTTTSGYNMGWFRQAPGKEREFVAGIKWVSGSNRAYAESVKGRFTISRDNAKNTVYLQMNSLKPEDTAVYYCAAATGQSYVPIREYEYVYWGQGTQVTVS
chain 2: GPPCPPCPAPEFLGGPSVFLFPPKPKDTLMISRTPEVTCVVVDVSQEDPEVQFNWYVDGVEVHNAKTKPREEQFNSTYRVVSVLTVLHQDWLNGKEYKCKVSNKGLPSSIEKTISKAKGQPREPQVCTLPPSQEEMTKNQVSLSCAVKGFYPSDIAVEWESNGQPENNYKTTPPVLDSDGSFFLVSRLTVDKSRWQEGNVFSCSVMHEALHNHYTQKSLSLSLGKGGGGSEVQLLESGGGLVQPGGSLRLSCAASGFTFGNYDMAWVRQAPGKRPEWVSSIDTGGDITHYADSVKGRFTISRDNAKNTLYLQMNSLRPEDTAVYWCATDEEYALGPNEFDYYGQGTLVTVSS
B2: CIgG4E2A1(G4S)1 (Fc fusion)
chain 1: GPPCPPCPAPEFLGGPSVFLFPPKPKDTLMISRTPEVTCVVVDVSQEDPEVQFNWYVDGVEVHNAKTKPREEQFNSTYRVVSVLTVLHQDWLNGKEYKCKVSNKGLPSSIEKTISKAKGQPREPQVYTLPPCQEEMTKNQVSLWCLVKGFYPSDIAVEWESNGQPENNYKTTPPVLDSDGSFFLYSRLTVDKSRWQEGNVFSCSVMHEALHNHYTQKSLSLSLGKGGGGSDVQLQESGGGLVQAGGSLRLSCAASGRTISRYAVGWFRRPPAKEREFIGINWSGGSTTYADSAEGRFIISRDNAKNTVYLQMNSLKPEDTAVYYCAVPSVLVQGGISNPSQYDYWGQGTQVTVS
chain 2: GPPCPPCPAPEFLGGPSVFLFPPKPKDTLMISRTPEVTCVVVDVSQEDPEVQFNWYVDGVEVHNAKTKPREEQFNSTYRVVSVLTVLHQDWLNGKEYKCKVSNKGLPSSIEKTISKAKGQPREPQVCTLPPSQEEMTKNQVSLSCAVKGFYPSDIAVEWESNGQPENNYKTTPPVLDSDGSFFLVSRLTVDKSRWQEGNVFSCSVMHEALHNHYTQKSLSLSLGKGGGGSEVQLLESGGGLVQPGGSLRLSCAASGFTFGNYDMAWVRQAPGKRPEWVSSIDTGGDITHYADSVKGRFTISRDNAKNTLYLQMNSLRPEDTAVYWCATDEEYALGPNEFDYYGQGTLVTVSS
B3: CIgG4E1A1(G4S)3 (Fc fusion)
chain 1: GPPCPPCPAPEFLGGPSVFLFPPKPKDTLMISRTPEVTCVVVDVSQEDPEVQFNWYVDGVEVHNAKTKPREEQFNSTYRVVSVLTVLHQDWLNGKEYKCKVSNKGLPSSIEKTISKAKGQPREPQVYTLPPCQEEMTKNQVSLWCLVKGFYPSDIAVEWESNGQPENNYKTTPPVLDSDGSFFLYSRLTVDKSRWQEGNVFSCSVMHEALHNHYTQKSLSLSLGKGGGGSGGGGSGGGGSDVQLQESGGGLVQAGGSLRLSCLASGRTFTTTSGYNMGWFRQAPGKEREFVAGIKWVSGSNRAYAESVKGRFTISRDNAKNTVYLQMNSLKPEDTAVYYCAAATGQSYVPIREYEYVYWGQGTQVTVS
chain 2: GPPCPPCPAPEFLGGPSVFLFPPKPKDTLMISRTPEVTCVVVDVSQEDPEVQFNWYVDGVEVHNAKTKPREEQFNSTYRVVSVLTVLHQDWLNGKEYKCKVSNKGLPSSIEKTISKAKGQPREPQVCTLPPSQEEMTKNQVSLSCAVKGFYPSDIAVEWESNGQPENNYKTTPPVLDSDGSFFLVSRLTVDKSRWQEGNVFSCSVMHEALHNHYTQKSLSLSLGKGGGGSGGGGSGGGGSEVQLLESGGGLVQPGGSLRLSCAASGFTFGNYDMAWVRQAPGKRPEWVSSIDTGGDITHYADSVKGRFTISRDNAKNTLYLQMNSLRPEDTAVYWCATDEEYALGPNEFDYYGQGTLVTVSS
B4: CIgG4E1A1(RS) (Fc fusion)
chain 1: GPPCPPCPAPEFLGGPSVFLFPPKPKDTLMISRTPEVTCVVVDVSQEDPEVQFNWYVDGVEVHNAKTKPREEQFNSTYRVVSVLTVLHQDWLNGKEYKCKVSNKGLPSSIEKTISKAKGQPREPQVYTLPPCQEEMTKNQVSLWCLVKGFYPSDIAVEWESNGQPENNYKTTPPVLDSDGSFFLYSRLTVDKSRWQEGNVFSCSVMHEALHNHYTQKSLSLSLGKRSDVQLQESGGGLVQAGGSLRLSCLASGRTFTTTSGYNMGWFRQAPGKEREFVAGIKWVSGSNRAYAESVKGRFTISRDNAKNTVYLQMNSLKPEDTAVYYCAAATGQSYVPIREYEYVYWGQGTQVTVS
chain 2: GPPCPPCPAPEFLGGPSVFLFPPKPKDTLMISRTPEVTCVVVDVSQEDPEVQFNWYVDGVEVHNAKTKPREEQFNSTYRVVSVLTVLHQDWLNGKEYKCKVSNKGLPSSIEKTISKAKGQPREPQVCTLPPSQEEMTKNQVSLSCAVKGFYPSDIAVEWESNGQPENNYKTTPPVLDSDGSFFLVSRLTVDKSRWQEGNVFSCSVMHEALHNHYTQKSLSLSLGKRSEVQLLESGGGLVQPGGSLRLSCAASGFTFGNYDMAWVRQAPGKRPEWVSSIDTGGDITHYADSVKGRFTISRDNAKNTLYLQMNSLRPEDTAVYWCATDEEYALGPNEFDYYGQGTLVTVSS
B5: CIgG4E2A1(RS) (Fc fusion)
chain 1: GPPCPPCPAPEFLGGPSVFLFPPKPKDTLMISRTPEVTCVVVDVSQEDPEVQFNWYVDGVEVHNAKTKPREEQFNSTYRVVSVLTVLHQDWLNGKEYKCKVSNKGLPSSIEKTISKAKGQPREPQVYTLPPCQEEMTKNQVSLWCLVKGFYPSDIAVEWESNGQPENNYKTTPPVLDSDGSFFLYSRLTVDKSRWQEGNVFSCSVMHEALHNHYTQKSLSLSLGKRSDVQLQESGGGLVQAGGSLRLSCAASGRTISRYAVGWFRRPPAKEREFIGINWSGGSTTYADSAEGRFIISRDNAKNTVYLQMNSLKPEDTAVYYCAVPSVLVQGGISNPSQYDYWGQGTQVTVS
chain 2: GPPCPPCPAPEFLGGPSVFLFPPKPKDTLMISRTPEVTCVVVDVSQEDPEVQFNWYVDGVEVHNAKTKPREEQFNSTYRVVSVLTVLHQDWLNGKEYKCKVSNKGLPSSIEKTISKAKGQPREPQVCTLPPSQEEMTKNQVSLSCAVKGFYPSDIAVEWESNGQPENNYKTTPPVLDSDGSFFLVSRLTVDKSRWQEGNVFSCSVMHEALHNHYTQKSLSLSLGKRSEVQLLESGGGLVQPGGSLRLSCAASGFTFGNYDMAWVRQAPGKRPEWVSSIDTGGDITHYADSVKGRFTISRDNAKNTLYLQMNSLRPEDTAVYWCATDEEYALGPNEFDYYGQGTLVTVSS
B6: NIgG4E1A1(G4S)3 (Fc fusion)
chain 1: DVQLQESGGGLVQAGGSLRLSCLASGRTFTTTSGYNMGWFRQAPGKEREFVAGIKWVSGSNRAYAESVKGRFTISRDNAKNTVYLQMNSLKPEDTAVYYCAAATGQSYVPIREYEYVYWGQGTQVTVSGGGGSGGGGSGGGGSGPPCPPCPAPEFLGGPSVFLFPPKPKDTLMISRTPEVTCVVVDVSQEDPEVQFNWYVDGVEVHNAKTKPREEQFNSTYRVVSVLTVLHQDWLNGKEYKCKVSNKGLPSSIEKTISKAKGQPREPQVYTLPPCQEEMTKNQVSLWCLVKGFYPSDIAVEWESNGQPENNYKTTPPVLDSDGSFFLYSRLTVDKSRWQEGNVFSCSVMHEALHNHYTQKSLSLSLGK
chain 2: EVQLLESGGGLVQPGGSLRLSCAASGFTFGNYDMAWVRQAPGKRPEWVSSIDTGGDITHYADSVKGRFTISRDNAKNTLYLQMNSLRPEDTAVYWCATDEEYALGPNEFDYYGQGTLVTVSSGGGGSGGGGSGGGGSGPPCPPCPAPEFLGGPSVFLFPPKPKDTLMISRTPEVTCVVVDVSQEDPEVQFNWYVDGVEVHNAKTKPREEQFNSTYRVVSVLTVLHQDWLNGKEYKCKVSNKGLPSSIEKTISKAKGQPREPQVCTLPPSQEEMTKNQVSLSCAVKGFYPSDIAVEWESNGQPENNYKTTPPVLDSDGSFFLVSRLTVDKSRWQEGNVFSCSVMHEALHNHYTQKSLSLSLGK
B7: CIgG4E1A1(G4S)2 (Fc fusion)
chain 1: GPPCPPCPAPEFLGGPSVFLFPPKPKDTLMISRTPEVTCVVVDVSQEDPEVQFNWYVDGVEVHNAKTKPREEQFNSTYRVVSVLTVLHQDWLNGKEYKCKVSNKGLPSSIEKTISKAKGQPREPQVYTLPPCQEEMTKNQVSLWCLVKGFYPSDIAVEWESNGQPENNYKTTPPVLDSDGSFFLYSRLTVDKSRWQEGNVFSCSVMHEALHNHYTQKSLSLSLGKGGGGSGGGGSDVQLQESGGGLVQAGGSLRLSCLASGRTFTTTSGYNMGWFRQAPGKEREFVAGIKWVSGSNRAYAESVKGRFTISRDNAKNTVYLQMNSLKPEDTAVYYCAAATGQSYVPIREYEYVYWGQGTQVTVS
chain 2: GPPCPPCPAPEFLGGPSVFLFPPKPKDTLMISRTPEVTCVVVDVSQEDPEVQFNWYVDGVEVHNAKTKPREEQFNSTYRVVSVLTVLHQDWLNGKEYKCKVSNKGLPSSIEKTISKAKGQPREPQVCTLPPSQEEMTKNQVSLSCAVKGFYPSDIAVEWESNGQPENNYKTTPPVLDSDGSFFLVSRLTVDKSRWQEGNVFSCSVMHEALHNHYTQKSLSLSLGKGGGGSGGGGSEVQLLESGGGLVQPGGSLRLSCAASGFTFGNYDMAWVRQAPGKRPEWVSSIDTGGDITHYADSVKGRFTISRDNAKNTLYLQMNSLRPEDTAVYWCATDEEYALGPNEFDYYGQGTLVTVSS
B8: CIgG4E2A1(G4S)2 (Fc fusion)
chain 1: GPPCPPCPAPEFLGGPSVFLFPPKPKDTLMISRTPEVTCVVVDVSQEDPEVQFNWYVDGVEVHNAKTKPREEQFNSTYRVVSVLTVLHQDWLNGKEYKCKVSNKGLPSSIEKTISKAKGQPREPQVYTLPPCQEEMTKNQVSLWCLVKGFYPSDIAVEWESNGQPENNYKTTPPVLDSDGSFFLYSRLTVDKSRWQEGNVFSCSVMHEALHNHYTQKSLSLSLGKGGGGSGGGGSDVQLQESGGGLVQAGGSLRLSCAASGRTISRYAVGWFRRPPAKEREFIGINWSGGSTTYADSAEGRFIISRDNAKNTVYLQMNSLKPEDTAVYYCAVPSVLVQGGISNPSQYDYWGQGTQVTVS
chain 2: GPPCPPCPAPEFLGGPSVFLFPPKPKDTLMISRTPEVTCVVVDVSQEDPEVQFNWYVDGVEVHNAKTKPREEQFNSTYRVVSVLTVLHQDWLNGKEYKCKVSNKGLPSSIEKTISKAKGQPREPQVCTLPPSQEEMTKNQVSLSCAVKGFYPSDIAVEWESNGQPENNYKTTPPVLDSDGSFFLVSRLTVDKSRWQEGNVFSCSVMHEALHNHYTQKSLSLSLGKGGGGSGGGGSEVQLLESGGGLVQPGGSLRLSCAASGFTFGNYDMAWVRQAPGKRPEWVSSIDTGGDITHYADSVKGRFTISRDNAKNTLYLQMNSLRPEDTAVYWCATDEEYALGPNEFDYYGQGTLVTVSS

Biological target: T1, recombinant human IgE (human, UniProt P01854-1 1-428)
T1 construct: made in-house (ALK); preloaded on immobilised FcεRIα in the displacement ELISA
T1 sequence (P01854 other isoform, or with tags, fused parts or gaps): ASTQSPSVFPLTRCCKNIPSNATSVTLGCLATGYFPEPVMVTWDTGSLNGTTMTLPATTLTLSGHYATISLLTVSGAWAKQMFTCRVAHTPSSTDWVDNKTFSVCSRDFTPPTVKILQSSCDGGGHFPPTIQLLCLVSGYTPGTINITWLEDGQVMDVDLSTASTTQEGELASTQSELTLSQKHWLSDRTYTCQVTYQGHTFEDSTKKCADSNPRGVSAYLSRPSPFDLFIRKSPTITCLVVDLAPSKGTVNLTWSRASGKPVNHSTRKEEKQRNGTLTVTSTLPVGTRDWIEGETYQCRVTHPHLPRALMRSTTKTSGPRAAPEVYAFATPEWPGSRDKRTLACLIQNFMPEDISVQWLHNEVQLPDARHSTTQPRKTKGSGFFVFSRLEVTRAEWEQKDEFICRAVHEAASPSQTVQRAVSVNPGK
Test: IgE-FcεRIα displacement ELISA
How it was run: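 Streptavidin-coated plates carried site-specifically biotinylated recombinant human FcεRIα, loaded with recombinant human IgE at 13 ng/ml. sdAbs in a pM–μM series were added for 1 h, and displaced IgE was washed off. Percent displacement was the signal reduction versus the no-sdAb control, giving EC50 and maximal effect.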

Row | Binder | EC50 | Max effect
1 | B1 | 30 nM | > 95%
2 | B2 | 1000 nM | 50%
3 | B3 | 9 nM | > 95%
4 | B4 | 480 nM | 65%
5 | B5 | – | 25%
6 | B6 | – | > 95%
7 | B7 | 10 nM | > 95%
8 | B8 | 410 nM | 65%
